# Assay results as given in patent publication US20180155451A1 (published 2018).
# T1: FcγRIIa R (human, UniProt P12318 34-217)
# T1 construct: extracellular domain; Soluble extracellular domain with C-terminal His tag, expressed in FreeStyle293 cells; also called FcgRIIa R; FcγRIIa type R; not shown: His tag attached to the C terminus
# T1 sequence (looked up): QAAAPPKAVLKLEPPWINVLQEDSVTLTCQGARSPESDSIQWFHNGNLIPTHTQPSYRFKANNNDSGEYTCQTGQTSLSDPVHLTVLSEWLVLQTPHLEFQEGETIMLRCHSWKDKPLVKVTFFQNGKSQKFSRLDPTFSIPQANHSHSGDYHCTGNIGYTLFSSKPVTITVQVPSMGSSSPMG
# Molecular target: T1, FcγRIIa R
# Experiment: SPR (Biacore), antibody captured via antigen peptide, FcγRIIa R as analyte; heterodimerized antibody
# Experimental: Analysis of interaction between objective antibody and the FcγR was carried out using Biacore T100 (GE Healthcare). HBS-EP+ (GE Healthcare) was used as the running buffer, and the measurement temperature was set to 25° C. Chips produced by immobilizing the antigen peptide by the amine coupling method to a Series S Sencor Chip CM5 (GE Healthcare), or alternatively, chips produced by allowing preliminarily biotinylated antigen peptides to interact with and immobilize onto a Series S Sensor Chip SA (certified) (GE Healthcare) were used. Antibodies of interest were captured onto an antigen peptide-immobilized chip, and allowed to interact to each FcγR diluted with running buffer. To regenerate and repeatedly use the chip, the antibodies captured on the chip were washed off by reacting 10 mM glycine-HCl, pH 1.5.
row,Binder,He/Con_2aR
1,"GpH7-A5/GpH7-B3 variant K326_10E/GpL16-k0 (antibody, human IgG1, kappa, heterodimerized; mutation in one H chain only; also called He Ab) heavy 1: not shown heavy 2: not shown light: DIVMTQSPLSLPVTPGEPASISCQASESLVHSNRNTYLHWYLQKPGQSPQLLIYKVSNRFSGVPDRFSGSGSGTDFTLKISRVEAEDVGVYYCSQNTHVPPTFGQGTKVEIERTVAAPSVFIFPPSDEQLKSGTASVVCLLNNFYPREAKVQWKVDNALQSGNSQESVTEQDSKDSTYSLSSTLTLSKADYEKHKVYACEVTHQGLSSPVTKSFNRGEC",148 % of control (GpH7-A5/GpH7-B3/GpL16-k0 = 100)
2,"GpH7-A5/GpH7-B3 variant L328_07I/GpL16-k0 (antibody, human IgG1, kappa, heterodimerized; mutation in one H chain only; also called He Ab) heavy 1: not shown heavy 2: not shown light: DIVMTQSPLSLPVTPGEPASISCQASESLVHSNRNTYLHWYLQKPGQSPQLLIYKVSNRFSGVPDRFSGSGSGTDFTLKISRVEAEDVGVYYCSQNTHVPPTFGQGTKVEIERTVAAPSVFIFPPSDEQLKSGTASVVCLLNNFYPREAKVQWKVDNALQSGNSQESVTEQDSKDSTYSLSSTLTLSKADYEKHKVYACEVTHQGLSSPVTKSFNRGEC",124 % of control (GpH7-A5/GpH7-B3/GpL16-k0 = 100)
3,"GpH7-A5/GpH7-B3 variant P238_08L/GpL16-k0 (antibody, human IgG1, kappa, heterodimerized; mutation in one H chain only; also called He Ab) heavy 1: not shown heavy 2: not shown light: DIVMTQSPLSLPVTPGEPASISCQASESLVHSNRNTYLHWYLQKPGQSPQLLIYKVSNRFSGVPDRFSGSGSGTDFTLKISRVEAEDVGVYYCSQNTHVPPTFGQGTKVEIERTVAAPSVFIFPPSDEQLKSGTASVVCLLNNFYPREAKVQWKVDNALQSGNSQESVTEQDSKDSTYSLSSTLTLSKADYEKHKVYACEVTHQGLSSPVTKSFNRGEC",140 % of control (GpH7-A5/GpH7-B3/GpL16-k0 = 100)
4,"GpH7-A5/GpH7-B3 variant K334_15Y/GpL16-k0 (antibody, human IgG1, kappa, heterodimerized; mutation in one H chain only; also called He Ab) heavy 1: not shown heavy 2: not shown light: DIVMTQSPLSLPVTPGEPASISCQASESLVHSNRNTYLHWYLQKPGQSPQLLIYKVSNRFSGVPDRFSGSGSGTDFTLKISRVEAEDVGVYYCSQNTHVPPTFGQGTKVEIERTVAAPSVFIFPPSDEQLKSGTASVVCLLNNFYPREAKVQWKVDNALQSGNSQESVTEQDSKDSTYSLSSTLTLSKADYEKHKVYACEVTHQGLSSPVTKSFNRGEC",108 % of control (GpH7-A5/GpH7-B3/GpL16-k0 = 100)
5,"GpH7-A5/GpH7-B3 variant L328_15Y/GpL16-k0 (antibody, human IgG1, kappa, heterodimerized; mutation in one H chain only; also called He Ab) heavy 1: not shown heavy 2: not shown light: DIVMTQSPLSLPVTPGEPASISCQASESLVHSNRNTYLHWYLQKPGQSPQLLIYKVSNRFSGVPDRFSGSGSGTDFTLKISRVEAEDVGVYYCSQNTHVPPTFGQGTKVEIERTVAAPSVFIFPPSDEQLKSGTASVVCLLNNFYPREAKVQWKVDNALQSGNSQESVTEQDSKDSTYSLSSTLTLSKADYEKHKVYACEVTHQGLSSPVTKSFNRGEC",136 % of control (GpH7-A5/GpH7-B3/GpL16-k0 = 100)
6,"GpH7-A5/GpH7-B3 variant L328_06M/GpL16-k0 (antibody, human IgG1, kappa, heterodimerized; mutation in one H chain only; also called He Ab) heavy 1: not shown heavy 2: not shown light: DIVMTQSPLSLPVTPGEPASISCQASESLVHSNRNTYLHWYLQKPGQSPQLLIYKVSNRFSGVPDRFSGSGSGTDFTLKISRVEAEDVGVYYCSQNTHVPPTFGQGTKVEIERTVAAPSVFIFPPSDEQLKSGTASVVCLLNNFYPREAKVQWKVDNALQSGNSQESVTEQDSKDSTYSLSSTLTLSKADYEKHKVYACEVTHQGLSSPVTKSFNRGEC",115 % of control (GpH7-A5/GpH7-B3/GpL16-k0 = 100)

# Results, then the binder that gave them:
row,He/Con_2aR,Binder
1,155 % of control (GpH7-A5/GpH7-B3/GpL16-k0 = 100),"GpH7-A5/GpH7-B3 variant S267_02A/GpL16-k0 (antibody, human IgG1, kappa, heterodimerized; mutation in one H chain only; also called He Ab) heavy 1: not shown heavy 2: not shown light: DIVMTQSPLSLPVTPGEPASISCQASESLVHSNRNTYLHWYLQKPGQSPQLLIYKVSNRFSGVPDRFSGSGSGTDFTLKISRVEAEDVGVYYCSQNTHVPPTFGQGTKVEIERTVAAPSVFIFPPSDEQLKSGTASVVCLLNNFYPREAKVQWKVDNALQSGNSQESVTEQDSKDSTYSLSSTLTLSKADYEKHKVYACEVTHQGLSSPVTKSFNRGEC"
2,117 % of control (GpH7-A5/GpH7-B3/GpL16-k0 = 100),"GpH7-A5/GpH7-B3 variant K334_03V/GpL16-k0 (antibody, human IgG1, kappa, heterodimerized; mutation in one H chain only; also called He Ab) heavy 1: not shown heavy 2: not shown light: DIVMTQSPLSLPVTPGEPASISCQASESLVHSNRNTYLHWYLQKPGQSPQLLIYKVSNRFSGVPDRFSGSGSGTDFTLKISRVEAEDVGVYYCSQNTHVPPTFGQGTKVEIERTVAAPSVFIFPPSDEQLKSGTASVVCLLNNFYPREAKVQWKVDNALQSGNSQESVTEQDSKDSTYSLSSTLTLSKADYEKHKVYACEVTHQGLSSPVTKSFNRGEC"
3,134 % of control (GpH7-A5/GpH7-B3/GpL16-k0 = 100),"GpH7-A5/GpH7-B3 variant K326_14T/GpL16-k0 (antibody, human IgG1, kappa, heterodimerized; mutation in one H chain only; also called He Ab) heavy 1: not shown heavy 2: not shown light: DIVMTQSPLSLPVTPGEPASISCQASESLVHSNRNTYLHWYLQKPGQSPQLLIYKVSNRFSGVPDRFSGSGSGTDFTLKISRVEAEDVGVYYCSQNTHVPPTFGQGTKVEIERTVAAPSVFIFPPSDEQLKSGTASVVCLLNNFYPREAKVQWKVDNALQSGNSQESVTEQDSKDSTYSLSSTLTLSKADYEKHKVYACEVTHQGLSSPVTKSFNRGEC"
4,116 % of control (GpH7-A5/GpH7-B3/GpL16-k0 = 100),"GpH7-A5/GpH7-B3 variant L328_03V/GpL16-k0 (antibody, human IgG1, kappa, heterodimerized; mutation in one H chain only; also called He Ab) heavy 1: not shown heavy 2: not shown light: DIVMTQSPLSLPVTPGEPASISCQASESLVHSNRNTYLHWYLQKPGQSPQLLIYKVSNRFSGVPDRFSGSGSGTDFTLKISRVEAEDVGVYYCSQNTHVPPTFGQGTKVEIERTVAAPSVFIFPPSDEQLKSGTASVVCLLNNFYPREAKVQWKVDNALQSGNSQESVTEQDSKDSTYSLSSTLTLSKADYEKHKVYACEVTHQGLSSPVTKSFNRGEC"
